Experimental data from patent publication US20090105116A1.

B1: SH2 domain from the SAP protein (protein)
chain: GSSHHHHHHSSFNPRGSDAVAVYHGKISRETGEKLLLATGLDGSYLLRDSESVPGVYCLCVLYHGYIYTYRVSQTETGSWSAETAPGVHKRYFRKIKNLISAFQKPDQGIVIPLQYPVEK
B2: eCla4-SLAM (peptide)
peptide: GGNSGFPGPINFTHKVHVGFDRKSLTIYAQVQKNFTGLPDTWKSLLQHSKIT
modifications: not checked

Key:
[1] = biological target: T1, CaCdc42 (R150K), sNBD-labeled and GMPPCP-loaded (Candida albicans); assay: fluorescence titration of 1 µM sNBD-labeled, GMPPCP-loaded CaCdc42 (R150K)
[2] = biological target: T1, CaCdc42 (R150K), sNBD-labeled and …; assay: fluorescence titration of 1 µM sNBD-labeled, GMPPCP-loaded CaCdc42 (R150K) with the peptide [panel A]
eCla4-SLAM = assay: fluorescence titration of sNBD-CaCdc42 (R150K) with eCla4-SLAM in the presence of SAP-SH2 (competition; fit of the apparent Kd against SAP-SH2 concentration)
[3] = biological target: T1, CaCdc42 (R150K), sNBD-labeled and …; assay: fluorescence cross-titration of sNBD-labeled CaCdc42 (R150K) in the presence of cCla4
[4] = biological target: T1, CaCdc42 (R150K), sNBD-labeled and …; assay: fluorescence titration of 1 µM sNBD-labeled, GMPPCP-loaded CaCdc42 (R150K) with the peptide [panel B]
[5] = biological target: T1, CaCdc42 (R150K), sNBD-labeled and …; assay: fluorescence cross-titration; mCst20 with cCst20 added, against mCst20 alone
[6] = biological target: T1, CaCdc42 (R150K), sNBD-labeled and …; assay: fluorescence cross-titration of sNBD-labeled CaCdc42 (R150K) in the presence of cCst20
[7] = biological target: T1, CaCdc42 (R150K), sNBD-labeled and …; assay: fluorescence titration of 1 µM CaCdc42 (R150K) with eCla4-SLAM, no SAP-SH2
[8] = biological target: T1, CaCdc42 (R150K), sNBD-labeled and …; assay: fluorescence cross-titration; cCst20 with mCst20 added, against cCst20 alone
[9] = biological target: T1, CaCdc42 (R150K), sNBD-labeled and …; assay: fluorescence cross-titration of sNBD-labeled CaCdc42 (R150K) in the presence of 50 µM mCst20
[10] = biological target: T1, CaCdc42 (R150K), sNBD-labeled and …; assay: fluorescence cross-titration of sNBD-labeled CaCdc42 (R150K) in the presence of 50 µM mCla4

Binder | Kd [1] [µM] | further results
EVNIKISTPFNAKHLAHVGIDDNGNFTGLPDTWKSLLQHSKIT (modifications not checked) [mCst20-cCla4] | 2.64 | 
VNIKISTPFNAKHLAHVGIDDNGSYTGLPIEWERLLSASGITKK (modifications not checked) [eCst20, P0CY24 469-512] | 0.046 | EC50 (read off the curve) [2]: 0.5 µM
B1 |  | Ki (eCla4-SLAM): 362 µM
GGNSGVSGPINFTHKVHVGFDPASGSYTGLPIEWERLLSASGIT (modifications not checked) [mCla4-cCst20] | 0.031 | 
GNSGVSGPINFTHKVHVGFDPASGNFTGLPDTWKSLLQHSKITN (modifications not checked) [eCla4, O14427 227-270] | 0.025 | EC50 (read off the curve) [2]: 0.5 µM
GNSGVSGPINFTHKVHVGFDPA (modifications not checked) [mCla4, O14427 227-248] | 4.2 | Kd [3]: 4.1 µM
EVNIKISTPFNAKHLAHVGIDPDNGNFTGLPDTWKSLLQHSKIT (modifications not checked) [mCst20-P-cCla4] | 0.093 | 
VNIKISTPFNAKHLAHVGIDDN (modifications not checked) [mCst20, P0CY24 469-490] | 0.43 | EC50 (read off the curve) [4]: 0.9 µM; fold enhancement in binding upon addition of the cognate peptide [5]: 5.5 fold; Kd [6]: 0.081 µM
B2 | 0.127 | EC50 (read off the curve) [7]: 0.7 µM
GGNSGVSGPINFTHKVHVGFDSGSGNFTGLPDTWKSLLQHSKIT (modifications not checked) [eCla4-SG, O14427 227-248; O14427 249-270] | 0.067 | 
GSYTGLPIEWERLLSASGITKK (modifications not checked) [cCst20, P0CY24 491-512] | 1160 | fold enhancement in binding upon addition of the cognate peptide [8]: 5.5 fold; Kd [9]: 207 µM
SGNFTGLPDTWKSLLQHSKITN (modifications not checked) [cCla4, O14427 249-270] | 275 | Kd [10]: 311 µM
